# Results: paper PMC3458437
# Several values for one entry are separate records, joined by “and”; a condition that tells them apart may be missing. Identical values can stand only once.
# Substrate: O=P(O)(O)CCO
# Assay: O2 consumption, Clark-type oxygen electrode, initial rates
# Format: biochemical, Nitrosopumilus maritimus
# Details: co-substrate O2 about 250 μM; Fe(II)-reconstituted enzyme; labelled compound
protein,measurement,value
methylphosphonate synthase (MPnS) (Nitrosopumilus maritimus SCM1) (protein) MEKKIDFKPDSYLIRSGNNFLGILNDIKRRPEDAANELGVSIEEINSIISGKQKISPSLIEKAVNIWPVNERDFYIVSDDCSSGILIMTSQDSIKSSRIMERAGKPYYEYRDTAMSKTAPFRPEWILELCKVENNDPENPKAQWNNGHFMHQFTYFIGEVNFYYKDPEGKKHVAIMNTGDSMYITPFTPHTFTTRDGASQNGLILALTYGSKLTGDIQQELSSLSLDCGSQYALDFTNHENASLSLLEYYFELSNLTKEKFAKRTNFSMETLADFFTKKKLPTFDELKIIAKALNVNSRDLMPNDLTESKVIVKTHDQCDHWKYPESGNYEFYELASTTALPHSKAFEIDVSSSEDLNLDLKVGLHQYVYNIGDSALTINWNYENKTYQKSLNPGDSAYIKPFVPHNFRGNGKILILRIGGKISGDSQRELSFVGRENTQRAISETMQWFDPKGSNS,Km,7.1 ± 0.8 µM and 6.5 ± 1.5 µM and 7.2 ± 1.4 µM
same,kcat,0.17 ± 0.01 s⁻¹
same,kcat/Km,24000 M⁻¹ s⁻¹ (2×) and 26000 M⁻¹ s⁻¹
